US6800606B1, “Monomeric analogues of human insulin” (Shanghai Institute of Biochemistry, priority 1999, dated 2004)

Experiment: Determination of structural forms by Superdex G-75 column elution
Format: physicochemical
Settings: for Peak profile / Retention Time: Superdex G-75 column (HR 10/30), phosphate buffered saline pH 7.4, flow rate 0.4 ml/min, sample 1.2 mg/ml; for Structural form (monomeric or polymeric): concluded from retention time and peak profile versus positive control [B28Lys, B29Pro] human insulin
Procedure: […] A preparation of each analogue is passed through Superdex G-75 column (HR 10/30). HI and [B28Lys, B29Pro] insulin (Lispro) are used as negative and positive controls respectively. Phosphate buffered saline pH 7.4 is used as an elution buffer and the flow rate fixed at 0.4 ml/min. The concentration of the sample preparation is 1.2 mg/ml.

[B16Ala]Hl: human insulin analogue with replacement of Tyr by Ala in position B16
Peak profile: Symmetrical | Retention Time: 38.3 min | Structural form (monomeric or polymeric): monomeric

[B12Thr]Hl: insulin analogue in which the 12th amino acid of the B-chain of human insulin (Val) is substituted by Thr
Peak profile: Symmetrical | Retention Time: 39.4 min | Structural form (monomeric or polymeric): monomeric

[B26Ala]Hl: human insulin analogue with replacement of Tyr by Ala in position B26
Peak profile: Symmetrical | Retention Time: 38.9 min | Structural form (monomeric or polymeric): monomeric

[B28Lys, B29Pro]Hl: commercial monomeric insulin with inversion of amino acids 28 and 29 of the B chain of human insulin; positive control [reference compound]
Peak profile: Symmetrical | Retention Time: 39.4 min

Hl: human insulin, used as negative control [reference compound]
Peak profile: Unsymmetrical | Retention Time: 36.4 min
